From patent US20220169722A1 (WUXI BIOLOGICS IRELAND, published 2022)
Positions count from the first letter of the chain named. Like-named read-outs stand apart in the source and are kept apart here. Each block holds one binder with its values, some of them ahead of it.

Key:
[1] = target: T1, human LAG-3 on transfected cells (human, UniProt P18627 23-525); assay: FACS on human LAG-3 transfected cells with serum-treated antibody, PE-labeled goat anti-human IgG
T1 construct: whole, on cells; Flp-In-293 or CHO-K1 cells transfected with full length human LAG-3; also called cell surface human LAG-3
T1 sequence (looked up): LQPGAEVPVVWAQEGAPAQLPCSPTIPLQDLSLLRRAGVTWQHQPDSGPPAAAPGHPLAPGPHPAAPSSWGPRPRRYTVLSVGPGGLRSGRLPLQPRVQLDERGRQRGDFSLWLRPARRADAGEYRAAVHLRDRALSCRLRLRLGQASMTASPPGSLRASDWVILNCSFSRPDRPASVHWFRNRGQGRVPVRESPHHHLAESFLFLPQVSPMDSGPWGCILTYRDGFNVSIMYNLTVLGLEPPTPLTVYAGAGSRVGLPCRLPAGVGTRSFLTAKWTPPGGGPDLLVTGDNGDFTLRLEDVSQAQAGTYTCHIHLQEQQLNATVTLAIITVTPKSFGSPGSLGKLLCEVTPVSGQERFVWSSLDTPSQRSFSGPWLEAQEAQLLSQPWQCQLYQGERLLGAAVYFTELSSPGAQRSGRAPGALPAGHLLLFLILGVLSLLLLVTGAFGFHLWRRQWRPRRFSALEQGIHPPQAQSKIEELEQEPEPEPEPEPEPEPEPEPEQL
Experimental: On indicated time points (day 0, day 1, day 4, day 7 and day 14), an aliquot of serum treated sample were removed from the incubator and snap frozen in liquid N2, and then stored at −80° C. until ready for test. All the samples were quickly thawed prior to the stability test. […] MFI of the cells was measured by a flow cytometry and analyzed by FlowJo.

[2] = target: T2, cynomolgus LAG-3 on transfected cells (cynomolgus monkey); assay: FACS on cynomolgus LAG-3 transfected cells
T2 construct: whole, on cells; 293F cells transfected with cynomolgus LAG-3; also called cell surface cynomolgus LAG-3; monkey LAG-3
Experimental: (§1) Similarly, cross-reactivity to cynomolgus or murine LAG-3 was tested by FACS with cyno or murine LAG-3 transfected cell lines.

[3] = target: T3, mouse Fc (mFc)-tagged human LAG-3 (human, UniProt P18627 23-450); assay: ELISA blocking: antibody pre-mixed with mFc-tagged human LAG-3, added to plates coated with human LSECtin (blocked ligand); detection goat anti-mouse IgG Fc-HRP
T3 construct: extracellular domain
T3 sequence (looked up): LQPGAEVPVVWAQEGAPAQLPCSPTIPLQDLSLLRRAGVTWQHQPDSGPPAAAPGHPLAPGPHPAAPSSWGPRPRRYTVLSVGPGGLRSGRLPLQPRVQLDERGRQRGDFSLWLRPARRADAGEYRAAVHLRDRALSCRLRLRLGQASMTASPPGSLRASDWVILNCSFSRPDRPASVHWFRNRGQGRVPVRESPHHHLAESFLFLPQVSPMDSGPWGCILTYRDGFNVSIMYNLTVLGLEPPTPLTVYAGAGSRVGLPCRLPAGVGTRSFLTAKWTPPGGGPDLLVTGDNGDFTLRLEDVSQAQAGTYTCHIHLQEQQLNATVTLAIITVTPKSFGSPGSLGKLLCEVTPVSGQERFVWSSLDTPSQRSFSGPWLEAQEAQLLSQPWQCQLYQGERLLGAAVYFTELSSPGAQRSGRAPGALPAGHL
Experimental: (§2) 96-well plates were coated with human LSECtin or Galectin-3 at 0.5 μg/ml overnight at 4° C., respectively. […] After blocking and washing, the mixture was transferred to the plates and incubated at room temperature for 1 h. The plates were then washed and subsequently incubated with the secondary antibody goat-anti Mouse IgG Fc-HRP for 1 h. After washing, TMB substrate was added and the color reaction was stopped by 2M HCl. The absorbance at 450 nm was read using a microplate reader.

[4] = target: T2, cynomolgus LAG-3 on transfected cells; assay: FACS affinity on transfected cells
[5] = target: T1, human LAG-3 on transfected cells; assay: FACS affinity on transfected cells
[6] = target: T3, mouse Fc (mFc)-tagged human LAG-3; assay: ELISA blocking: antibody pre-mixed with mFc-tagged human LAG-3, added to plates coated with human LSECtin (blocked ligand); detection goat anti-mouse IgG Fc-HRP; remark: listed apart in the source
Experimental: as §2

[7] = target: T2, cynomolgus LAG-3 on transfected cells; assay: FACS, serial dilutions on cynomolgus LAG-3 transfected cells, PE-labeled secondary antibody
Experimental: as §1

[8] = target: T4, human LAG-3 protein (SPR analyte) (human, UniProt P18627 23-450); assay: SPR Biacore 8K, Ab captured on anti-human Fc, LAG-3 as analyte
T4 construct: extracellular domain
T4 sequence (looked up): T3 sequence (looked up)

[9] = target: T5, mouse LAG-3 protein (SPR analyte) (mouse, UniProt Q61790 24-442); assay: as above
T5 construct: extracellular domain
T5 sequence (looked up): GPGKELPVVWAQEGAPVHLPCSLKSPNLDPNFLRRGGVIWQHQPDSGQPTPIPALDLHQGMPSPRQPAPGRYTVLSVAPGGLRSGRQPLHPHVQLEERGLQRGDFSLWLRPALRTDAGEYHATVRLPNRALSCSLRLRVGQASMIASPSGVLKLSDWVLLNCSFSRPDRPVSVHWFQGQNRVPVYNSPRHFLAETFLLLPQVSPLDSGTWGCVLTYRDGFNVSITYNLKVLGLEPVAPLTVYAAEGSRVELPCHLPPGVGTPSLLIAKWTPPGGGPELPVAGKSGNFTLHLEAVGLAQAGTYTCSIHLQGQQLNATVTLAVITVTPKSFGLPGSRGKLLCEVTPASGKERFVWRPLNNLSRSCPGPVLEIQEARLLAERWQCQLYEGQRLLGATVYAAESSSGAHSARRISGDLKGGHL

[10] = target: T6, mouse LAG-3 on transfected cells (mouse, UniProt Q61790 24-521); assay: FACS on mouse LAG-3 transfected cells
T6 construct: whole, on cells; Flp-In-CHO cells transfected with mouse LAG-3; also called cell surface mouse LAG-3; murine LAG-3
T6 sequence (looked up): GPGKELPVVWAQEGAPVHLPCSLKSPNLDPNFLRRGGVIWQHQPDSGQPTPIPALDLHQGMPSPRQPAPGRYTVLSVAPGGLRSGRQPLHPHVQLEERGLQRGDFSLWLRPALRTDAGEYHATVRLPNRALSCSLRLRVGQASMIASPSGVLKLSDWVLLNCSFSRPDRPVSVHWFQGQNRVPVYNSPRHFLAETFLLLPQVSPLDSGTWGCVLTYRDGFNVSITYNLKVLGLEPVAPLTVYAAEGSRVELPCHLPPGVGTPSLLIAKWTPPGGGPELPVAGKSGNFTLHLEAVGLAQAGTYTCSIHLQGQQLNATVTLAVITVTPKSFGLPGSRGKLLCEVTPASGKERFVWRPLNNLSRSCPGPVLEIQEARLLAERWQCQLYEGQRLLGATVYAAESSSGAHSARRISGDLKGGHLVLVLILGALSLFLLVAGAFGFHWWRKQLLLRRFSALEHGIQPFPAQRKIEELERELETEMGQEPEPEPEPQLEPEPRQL
Experimental: as §1

[11] = target: T3, mouse Fc (mFc)-tagged human LAG-3; assay: ELISA blocking: antibody pre-mixed with mFc-tagged human LAG-3, added to plates coated with human Galectin-3 (blocked ligand); detection goat anti-mouse IgG Fc-HRP
Experimental: as §2

[12] = target: T2, cynomolgus LAG-3 on transfected cells; assay: FACS affinity on transfected cells; remark: listed apart in the source
[13] = target: T1, human LAG-3 on transfected cells; assay: FACS affinity on transfected cells; remark: listed apart in the source
[14] = target: T6, mouse LAG-3 on transfected cells; assay: FACS affinity on transfected cells
[15] = target: T3, mouse Fc (mFc)-tagged human LAG-3; assay: FACS blocking: antibody pre-mixed with mFc-tagged human LAG-3; blocked ligand: cell surface human MHC-II (paragraph 254 says 'on A20 cells' for this figure); the column head on the sheet reads 'EC50 (nM)', the text calls the value IC50
Experimental: (§3) The mixture was transferred into the 96-well plates seeded with Raji cells. Goat anti-mouse IgG Fc-PE antibody was used to detect the binding of LAG-3 protein to Raji cells. The mean fluorescence intensity (MFI) was evaluated by flow cytometry and analyzed by FlowJo.

[16] = target: T3, mouse Fc (mFc)-tagged human LAG-3; assay: FACS blocking: antibody pre-mixed with mFc-tagged human LAG-3, added to Raji cells; blocked ligand: human MHC-II on Raji cells; detection goat anti-mouse IgG Fc-PE
Experimental: as §3

[17] = target: T1, human LAG-3 on transfected cells; assay: FACS, serial dilutions on human LAG-3 transfected cells, PE-labeled secondary antibody
[18] = target: human CD4 (human, UniProt P01730 26-390, limits assumed); assay: ELISA, plates coated with human CD4, goat anti-human IgG Fc-HRP
Experimental: Cross-reactivity to human CD4 was measured by ELISA. Plates were coated with human CD4 at 1 μg/ml overnight at 4° C. After blocking and washing, 1 μg/ml of LAG-3 antibodies were added to the plates and incubated at room temperature for 1 h. The plates were then washed and subsequently incubated with goat-anti human IgG Fc-HRP for 45 min. After washing, TMB substrate was added and the color reaction was stopped by 2M HCl. The absorbance at 450 nm was read using a microplate reader.

[19] = target: T7, mFc-tagged mouse LAG-3 (mouse, UniProt Q61790 24-442); assay: FACS competition; blocks mFc-mouse LAG-3 binding to MHC-II on A20 cells
T7 construct: extracellular domain; also called mFc-tagged mouse protein
T7 sequence (looked up): T5 sequence (looked up)

[20] = target: T4, human LAG-3 protein (SPR analyte); assay: SPR Biacore 8K, Ab as ligand, LAG-3 as analyte
[21] = target: T5, mouse LAG-3 protein (SPR analyte); assay: SPR Biacore 8K, Ab as ligand, LAG-3 as analyte
[22] = target: T3, mouse Fc (mFc)-tagged human LAG-3; assay: ELISA blocking: antibody pre-mixed with mFc-tagged human LAG-3, added to plates coated with human Galectin-3 (blocked ligand); detection goat anti-mouse IgG Fc-HRP; remark: listed apart in the source
Experimental: as §2

EC50 (read off the curve) [1]: ~100 pM | EC50 [2]: 2340 pM | IC50 [3]: 1810 pM | Bmax [4]: 380 pM | Kd [4]: 6300 pM | Bmax [5]: 54 pM | Kd [5]: 460 pM | IC50 [6]: 642 pM | EC50 [7]: 2340 pM | Kd [8]: 162 pM | koff [8]: 2.7e-05 s⁻¹ | kon [8]: 166000 M⁻¹ s⁻¹ | Kd [9]: < 1.22 pM | koff [9]: < 1e-06 s⁻¹ | kon [9]: 819000 M⁻¹ s⁻¹ | EC50 [10]: 100 pM | IC50 [11]: 1860 pM | Bmax [12]: 280 pM | Kd [12]: 3300 pM | Bmax [13]: 250 pM | Kd [13]: 810 pM | Bmax [14]: 57 pM | Kd [14]: 57 pM | IC50 [15]: 1780 pM | IC50 [16]: 840 pM | EC50 [17]: 364 pM | binding result [18]: no binding (tested: 66.7 nM) | IC50 [19]: 2900 pM | Kd [20]: 183 pM | koff [20]: 2.73e-05 s⁻¹ | kon [20]: 149000 M⁻¹ s⁻¹ | Kd [21]: 2.27 pM | koff [21]: 2.31e-06 s⁻¹ | kon [21]: 1.02e+06 M⁻¹ s⁻¹ | IC50 [22]: 926 pM
B1: W3396-R2-1 (Fc fusion)
VHH: QVQLVESGGGVVQPGGSLRLSCAASGLTLSQYTMGWFRQAPGKERELVAAIHWTSSVTDYADSVYGRFTISRDDSKNTGYLQMNSLRAEDTAVYYCAATWYYTHRGSFDYWGQGTLVTVSS

EC50 (read off the curve) [1]: ~200 pM | EC50 [2]: 2160 pM | IC50 [6]: 797 pM | EC50 [7]: 2160 pM | Kd [8]: 4060 pM | koff [8]: 0.000197 s⁻¹ | kon [8]: 48400 M⁻¹ s⁻¹ | Kd [9]: < 0.952 pM | koff [9]: < 1e-06 s⁻¹ | kon [9]: 1.05e+06 M⁻¹ s⁻¹ | Bmax [12]: 310 pM | Kd [12]: 5000 pM | Bmax [13]: 200 pM | Kd [13]: 920 pM | Bmax [14]: 53 pM | Kd [14]: 54 pM | IC50 [16]: 460 pM | binding result [18]: no binding (tested: 66.7 nM) | IC50 [19]: 2400 pM | IC50 [22]: 1300 pM
B2: W3396-R2-13 (Fc fusion)
VHH: B1 VHH with Y65R

IC50 [3]: 1610 pM | Bmax [4]: 300 pM | Kd [5]: 460 pM | EC50 [10]: 130 pM | IC50 [11]: 1230 pM | EC50 [17]: 228 pM | binding result [18]: no binding (tested: 33.4 nM) | Kd [20]: 165 pM | Kd [21]: < 0.575 pM
B3: W3396-R2-2 (Fc fusion)
VHH: B1 VHH with W100H, S107P
